The values below come from patent US20260166168A1 (MEDILINK THERAPEUTICS SUZHOU, published 2026).

In experiment [1] the target is T1, human DLL1 on 293T-hDLL1 cells (human, UniProt O00548 18-723).
T1 construct: whole, on cells; also called 293T-DLL1; HEK293T-hDLL1
T1 sequence (looked up): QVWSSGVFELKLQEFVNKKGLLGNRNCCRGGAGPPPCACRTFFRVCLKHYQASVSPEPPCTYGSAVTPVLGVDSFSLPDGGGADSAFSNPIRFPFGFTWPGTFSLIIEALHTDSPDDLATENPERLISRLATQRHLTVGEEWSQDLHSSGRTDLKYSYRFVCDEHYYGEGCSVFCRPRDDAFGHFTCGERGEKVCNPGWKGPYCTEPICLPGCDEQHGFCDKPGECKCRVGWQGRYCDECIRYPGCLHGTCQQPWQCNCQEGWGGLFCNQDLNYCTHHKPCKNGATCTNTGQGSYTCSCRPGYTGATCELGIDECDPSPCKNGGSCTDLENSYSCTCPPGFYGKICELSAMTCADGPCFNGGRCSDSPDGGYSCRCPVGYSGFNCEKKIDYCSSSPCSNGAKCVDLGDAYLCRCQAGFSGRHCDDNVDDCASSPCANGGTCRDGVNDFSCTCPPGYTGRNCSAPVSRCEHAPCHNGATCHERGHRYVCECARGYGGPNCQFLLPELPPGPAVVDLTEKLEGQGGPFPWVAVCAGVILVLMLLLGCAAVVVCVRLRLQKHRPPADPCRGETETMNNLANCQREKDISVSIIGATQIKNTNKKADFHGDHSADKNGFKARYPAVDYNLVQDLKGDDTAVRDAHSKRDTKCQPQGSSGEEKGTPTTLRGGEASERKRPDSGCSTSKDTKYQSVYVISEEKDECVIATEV
The experiment can be described thus: flow cytometry on 293T-hDLL1 cells, antibody 20 µg/mL.

Experiment [2] has as its target T2, recombinant extracellular domain protein of human DLL3 (h.DLL3-ECD-His) (human, UniProt Q9NYJ7 27-492).
T2 construct: extracellular domain; Commercial protein; also called human DLL3 antigen; not shown: His tag
T2 sequence (looked up): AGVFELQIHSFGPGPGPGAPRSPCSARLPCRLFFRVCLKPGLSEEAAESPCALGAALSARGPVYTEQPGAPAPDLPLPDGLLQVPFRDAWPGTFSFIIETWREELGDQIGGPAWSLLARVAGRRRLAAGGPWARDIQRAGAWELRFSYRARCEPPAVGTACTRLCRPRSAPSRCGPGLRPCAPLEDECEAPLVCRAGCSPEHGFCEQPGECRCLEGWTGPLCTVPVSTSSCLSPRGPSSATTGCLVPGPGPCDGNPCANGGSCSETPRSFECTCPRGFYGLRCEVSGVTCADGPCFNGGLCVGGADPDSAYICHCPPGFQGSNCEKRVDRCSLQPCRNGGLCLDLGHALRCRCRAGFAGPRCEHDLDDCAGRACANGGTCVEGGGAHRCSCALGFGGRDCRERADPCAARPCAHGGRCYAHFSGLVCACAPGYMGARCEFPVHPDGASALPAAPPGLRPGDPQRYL
The experiment can be described thus: ELISA, coated hDLL3-ECD-his, murine antibody titrated. A general note: An ELISA detects its analyte on a solid surface through an enzyme-linked reagent.

The target in experiment [3] is T3, recombinant extracellular domain protein of cynomolgus monkey DLL3 (cyno.DLL3-ECD-His) (cynomolgus monkey, UniProt A0A2K5WSR1 27-490).
T3 construct: extracellular domain; Commercial protein; not shown: His tag
T3 sequence: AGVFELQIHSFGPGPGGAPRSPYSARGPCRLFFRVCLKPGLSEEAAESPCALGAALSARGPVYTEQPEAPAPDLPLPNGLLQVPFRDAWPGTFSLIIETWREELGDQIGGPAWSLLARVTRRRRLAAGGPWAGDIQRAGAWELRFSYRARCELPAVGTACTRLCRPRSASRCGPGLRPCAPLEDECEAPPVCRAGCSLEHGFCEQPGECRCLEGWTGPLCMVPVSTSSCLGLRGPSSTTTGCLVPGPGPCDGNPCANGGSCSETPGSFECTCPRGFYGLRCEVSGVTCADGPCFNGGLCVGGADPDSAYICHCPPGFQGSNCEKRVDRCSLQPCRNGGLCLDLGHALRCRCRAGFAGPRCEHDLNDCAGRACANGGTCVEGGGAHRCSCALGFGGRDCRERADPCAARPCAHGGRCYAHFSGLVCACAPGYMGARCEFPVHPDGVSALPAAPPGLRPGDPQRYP
In words: ELISA, coated cynoDLL3-ECD-his, murine antibody titrated.

For experiment [4], the target named is T4, human DLL4 on 293T-hDLL4 cells (human, UniProt Q9NR61 27-685).
T4 construct: whole, on cells; also called 293T-DLL4; HEK293T-hDLL4
T4 sequence (Q9NR61 27-685): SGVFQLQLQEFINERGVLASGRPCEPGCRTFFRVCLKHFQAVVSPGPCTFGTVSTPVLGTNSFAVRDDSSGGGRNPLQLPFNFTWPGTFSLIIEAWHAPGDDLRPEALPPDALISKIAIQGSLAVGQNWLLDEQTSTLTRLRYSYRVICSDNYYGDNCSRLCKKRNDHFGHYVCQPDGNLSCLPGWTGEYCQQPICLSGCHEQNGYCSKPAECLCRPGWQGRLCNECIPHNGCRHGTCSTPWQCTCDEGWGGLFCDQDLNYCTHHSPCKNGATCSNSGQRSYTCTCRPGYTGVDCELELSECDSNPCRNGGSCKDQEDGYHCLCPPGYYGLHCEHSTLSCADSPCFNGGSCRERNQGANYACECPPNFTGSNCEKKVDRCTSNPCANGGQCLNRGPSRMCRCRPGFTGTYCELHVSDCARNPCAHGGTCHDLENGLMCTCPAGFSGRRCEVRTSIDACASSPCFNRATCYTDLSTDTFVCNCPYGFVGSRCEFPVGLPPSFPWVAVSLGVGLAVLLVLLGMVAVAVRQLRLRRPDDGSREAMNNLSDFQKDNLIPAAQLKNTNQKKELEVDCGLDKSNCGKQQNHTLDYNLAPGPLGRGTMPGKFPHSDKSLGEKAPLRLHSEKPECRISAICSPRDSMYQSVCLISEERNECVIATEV
In words: flow cytometry on 293T-hDLL4 cells, antibody 20 µg/mL. Background: In flow cytometry, cells or beads pass a laser one at a time.

B1: murine antibody 55C11E4 (antibody, V domains shown)
VH: EVQLQQSGPVLVKPGASVKMSCKASGYTFTDYYMNWVKQSHGKSLEWIGVINPYNGGTNYSQKFKGKATLTVDKSSSTAYMELNSLTSEDSAVYYCARDSNYVGLLDYWGQGTSVTVSS
VL: DIVLTQSPATLSVTPGDSVSLSCRASQSISNNLHWYQQKSHESPRLLIKYASQSISGIPSRFSGSGSGPDFTLSIDSVETEDFGVYFCQQSNSWPYTFGGGTKLEIK
notes: Murine antibody purified from hybridoma supernatant
The EC50 is the concentration at which the effect is half-maximal. As for B1, the positive rate in experiment [1] was 0.92%; in experiment [4] it was 0.1%. The results for the EC50 in experiment [2] and in experiment [3] were 56.7 ng/mL and 40.9 ng/mL, respectively.

B2: murine antibody 59B10D3 (antibody, V domains shown)
VH: EVKLEESGGGLVQPGGSMKLSCAASGFTFSDAWMDWVRQSPEKGLEWIAEIRNKANNHATYYTESVKGRFTISRDDSKSSVYLQMISLRPEDTGIYYCTRNNYGSTWTYYAMDYWGQGTSVTVSS
VL: DIQMTQTSSSLSASLGDRVTINCRASQDISNYLNWYQQKPDGTVKLLIYYTSRLHSGVPSRFSGSGSGTDYSLTISNLEHEDIATYFCQQGYTLPLTFGAGTNLELK
notes: as for B1
Consider B2, for which the positive rate in experiment [1] is 6.3%; in experiment [4] it was 0.67%. In addition, the figures for the EC50 in experiment [2] and in experiment [3] were 1.3 ng/mL and 1.25 ng/mL, respectively.

B3: murine antibody 87F7F10 (antibody, V domains shown)
VH: DVQLQESGPGLVKPSQSLSLTCSVTGYSITSDFYWNWIRQFPGNKLEWMGYITYDGSTNYDPSLKNRISITRDTSKNQFFLKLNSVTAEDTATYYCVYGDFNRHAMDYWGQGTSVTVSS
VL: DIVMSQSPSSLAVSAGEKVTMSCRSSQSLFNSRTRKNYLAWYQQKPGQPPKVLIYWASTRESGVPDRFTGSGSGTDFTLTISSVQAEDLAVYYCEQSFYLFTFGTGTKLEI
notes: as for B1
Consider B3, for which the positive rate in experiment [1] is 1.84%; in experiment [4], 0.42%. The figures for the EC50 in experiment [2] and in experiment [3] were 1.68 ng/mL and 1.31 ng/mL, respectively.

B4: murine antibody 6F11C10 (antibody, V domains shown)
VH: EVHLQQSGPVLVKPGPSVKISCKASGFTFTDYYMHWVKQSHGKSLEWIGLVYPYNGDISYNQKFKGKATLTVDTSSSTAYMELNSLTSEDSAVYYCARQGNYVNNAIDYWGQGTSVTVSS
VL: DIVMTQSQKFMSTSVGDRVSISCKASQNVGNIIAWYQQKPGQSPKALIYLASYRYSGVPDRFTGSGSGTDFTLTINNVQSEDLAEYFCQQYSDSPYTFGSGTKLEI
notes: as for B1
Take B4: the positive rate in experiment [1] turned out to be 0.64%; in experiment [4], 0.76%. In addition, the EC50 in experiment [2] worked out at 7.59 ng/mL; in experiment [3] it was 19.5 ng/mL.
